Holding throughout (assay): fluorescence polarisation; 37 °C, after the 25 °C reading ramped over 7 min to 37 °C and 2 min incubation; unlabeled Rb^P against 1.5 nM TMR-E2F1^TD or 7.5 nM TMR-E7^LxCxE; 25 mM Tris pH 8.0, 200 mM NaCl, 1 mM DTT, 0.1% Tween-20; apparent Kd
What all share (details): both partners purified
Background: Polarisation of emitted light reports the rotation of a fluorescent probe.

The target in one assay is T1, Rb^P E675Q (human, UniProt P06400 380-788, E675Q).
T1 construct: also called variant 56
T1 sequence (looked up): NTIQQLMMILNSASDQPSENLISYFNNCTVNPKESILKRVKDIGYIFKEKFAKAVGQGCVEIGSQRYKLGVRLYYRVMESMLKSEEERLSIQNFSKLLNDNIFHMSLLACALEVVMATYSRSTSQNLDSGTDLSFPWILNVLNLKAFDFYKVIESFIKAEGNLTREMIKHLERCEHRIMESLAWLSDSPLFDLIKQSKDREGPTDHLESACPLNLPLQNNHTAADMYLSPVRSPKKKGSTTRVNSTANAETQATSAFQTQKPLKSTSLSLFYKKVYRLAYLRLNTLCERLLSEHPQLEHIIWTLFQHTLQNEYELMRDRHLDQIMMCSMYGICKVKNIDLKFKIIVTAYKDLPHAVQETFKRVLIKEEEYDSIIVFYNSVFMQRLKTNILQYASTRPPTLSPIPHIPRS

A further assay concerns the target T2, Rb^P E440K (human, UniProt P06400 380-788, E440K).
T2 construct: also called variant 1
T2 sequence (looked up): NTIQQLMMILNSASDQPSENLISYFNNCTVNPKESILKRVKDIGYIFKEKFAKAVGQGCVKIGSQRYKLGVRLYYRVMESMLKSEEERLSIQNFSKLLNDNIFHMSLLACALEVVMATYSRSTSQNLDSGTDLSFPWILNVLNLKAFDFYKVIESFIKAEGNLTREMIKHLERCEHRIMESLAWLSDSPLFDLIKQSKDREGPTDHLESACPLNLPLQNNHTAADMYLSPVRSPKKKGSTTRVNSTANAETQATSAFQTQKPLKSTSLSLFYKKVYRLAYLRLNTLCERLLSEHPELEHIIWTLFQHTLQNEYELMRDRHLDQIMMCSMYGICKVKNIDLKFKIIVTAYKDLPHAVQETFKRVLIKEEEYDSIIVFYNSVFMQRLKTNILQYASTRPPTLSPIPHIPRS

The next assay addresses T3, Rb^P T638S (human, UniProt P06400 380-788, T638S).
T3 construct: also called variant 45
T3 sequence (looked up): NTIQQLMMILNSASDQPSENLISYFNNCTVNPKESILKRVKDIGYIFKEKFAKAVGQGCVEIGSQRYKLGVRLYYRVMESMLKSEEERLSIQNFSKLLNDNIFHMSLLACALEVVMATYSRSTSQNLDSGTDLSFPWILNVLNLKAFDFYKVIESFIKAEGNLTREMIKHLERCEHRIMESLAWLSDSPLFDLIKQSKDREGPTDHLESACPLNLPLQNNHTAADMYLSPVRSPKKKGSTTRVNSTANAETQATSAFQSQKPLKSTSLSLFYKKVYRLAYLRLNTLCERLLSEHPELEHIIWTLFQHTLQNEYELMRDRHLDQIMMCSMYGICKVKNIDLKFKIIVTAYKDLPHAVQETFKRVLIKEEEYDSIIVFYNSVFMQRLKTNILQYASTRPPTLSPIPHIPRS

For the next assay, the target named is T4, Rb^P E492Q (human, UniProt P06400 380-788, E492Q).
T4 construct: also called variant 18
T4 sequence (looked up): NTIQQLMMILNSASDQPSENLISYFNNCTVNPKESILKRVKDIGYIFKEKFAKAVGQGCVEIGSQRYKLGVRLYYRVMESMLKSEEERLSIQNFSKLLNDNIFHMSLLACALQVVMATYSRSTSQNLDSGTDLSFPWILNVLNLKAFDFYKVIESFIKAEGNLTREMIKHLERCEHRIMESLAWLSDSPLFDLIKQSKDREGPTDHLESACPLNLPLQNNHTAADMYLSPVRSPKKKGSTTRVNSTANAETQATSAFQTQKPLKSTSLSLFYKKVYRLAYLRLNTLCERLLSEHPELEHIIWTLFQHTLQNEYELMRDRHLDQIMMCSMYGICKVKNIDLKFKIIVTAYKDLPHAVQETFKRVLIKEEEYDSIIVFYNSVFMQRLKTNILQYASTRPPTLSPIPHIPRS

The target of the next assay is T5, Rb^P I703V (human, UniProt P06400 380-788, I703V).
T5 construct: also called variant 65
T5 sequence (looked up): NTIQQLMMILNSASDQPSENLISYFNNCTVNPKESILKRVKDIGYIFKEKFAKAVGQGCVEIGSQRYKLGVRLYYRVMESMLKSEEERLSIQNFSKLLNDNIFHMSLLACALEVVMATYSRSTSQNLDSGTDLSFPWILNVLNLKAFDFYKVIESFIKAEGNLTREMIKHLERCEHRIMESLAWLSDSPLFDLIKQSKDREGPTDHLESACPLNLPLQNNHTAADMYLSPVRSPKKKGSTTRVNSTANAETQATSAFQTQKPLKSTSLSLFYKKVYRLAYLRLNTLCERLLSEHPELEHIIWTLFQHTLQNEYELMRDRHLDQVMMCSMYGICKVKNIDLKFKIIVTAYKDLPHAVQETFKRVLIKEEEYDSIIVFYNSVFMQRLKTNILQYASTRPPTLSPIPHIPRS

No end group written: not given here. TMR = tetramethyl rhodamine dye

B1: TMR-E2F1^TD, peptide of the E2F1 transactivation domain (peptide)
peptide: {TMR}-GEGIRDLFDCDFGDLTPLD
notes: also called E2F^TD; source: synthetic peptide, bought: GenScript
Take B1: the Kd was 0.071 µM with Rb^P E675Q; 0.027 µM in the assay with Rb^P E440K; 0.038 µM with Rb^P T638S; 0.073 µM in the assay with Rb^P E492Q; 0.099 µM with Rb^P I703V.

B2: TMR-E7^LxCxE, LxCxE peptide of the E7 oncoprotein from HPV (peptide)
peptide: DLYCYEQLN
modifications: also: TMR label, position not given here
notes: source: synthetic peptide, bought: GenScript
Consider B2, for which the Kd turned out to be 0.046 µM with Rb^P E675Q; 0.013 µM in the assay with Rb^P E440K; 0.014 µM with Rb^P T638S; 0.052 µM in the assay with Rb^P E492Q; 0.053 µM in the assay with Rb^P I703V.

(Values after article PMC11931385, “Structural and functional analysis of cancer-associated missense variants in the retinoblastoma protein pocket domain” (The Journal of Biological Chemistry, 2025).)
